Experimental findings from the array DNA melting data of Ke et al. are described below.

This data set is described as follows: melting temperature; melt of duplexes. The following applies: sodium 0.0675 M; strand 1 µM.
On to “CGACGTGCTCAATGTGCTG+CAGCACATAGGGCACGTCG ((((((((.(.((((((((+)))))))).).))))))))”, for which the Tm (usually the temperature at which the thermal transition is half complete) is 52.8 °C. In the case of “CGACGTGCGAAATGTGCTG+CAGCACATCAGGCACGTCG ((((((((...((((((((+))))))))...))))))))”, the midpoint of thermal melting (Tm) was found to be 49.7 °C. Then “CGACGTGCTGGATGTGCTG+CAGCACATCAAGCACGTCG (((((((((.(((((((((+))))))))).)))))))))”, with 59 °C; and “CGACGTGCGTTATGTGCTG+CAGCACATAGAGCACGTCG ((((((((..(((((((((+)))))))))..))))))))”, with 54.6 °C. For “CGACGTGCTGTATGTGCTG+CAGCACATTCTGCACGTCG ((((((((.(.((((((((+)))))))).).))))))))” the value was 52 °C; for “CGACGTGCTGAATGTGCTG+CAGCACATAGTGCACGTCG ((((((((...((((((((+))))))))...))))))))”, 45.3 °C. For “CGACGTGCCTGATGTGCTG+CAGCACATACGGCACGTCG (((((((((..((((((((+))))))))..)))))))))” the value was 54.1 °C. With “CGACGTGCCGAATGTGCTG+CAGCACATGCGGCACGTCG ((((((((((.((((((((+)))))))).))))))))))”, the Tm was determined as 61.6 °C. Then “CGACGTGCGCCATGTGCTG+CAGCACATAAGGCACGTCG ((((((((...((((((((+))))))))...))))))))”, with 48.6 °C.

On to “CGACGTGCATAATGTGCTG+CAGCACATGCTGCACGTCG (((((((((..((((((((+))))))))..)))))))))”, for which the midpoint of thermal melting (Tm) turned out to be 50 °C. For “CGACGTGCATGATGTGCTG+CAGCACATAATGCACGTCG ((((((((((.((((((((+)))))))).))))))))))” the value was 56 °C; for “CGACGTGCCTAATGTGCTG+CAGCACATTGTGCACGTCG ((((((((..(((((((((+)))))))))..))))))))”, 49 °C; for “CGACGTGCTACATGTGCTG+CAGCACATCGAGCACGTCG (((((((((..((((((((+))))))))..)))))))))”, 51.6 °C. On to “CGACGTGCCAGATGTGCTG+CAGCACATCTCGCACGTCG ((((((((.((((((((((+)))))))))).))))))))”, for which the melting temperature (Tm) was determined as 55.9 °C. Then “CGACGTGCTAAATGTGCTG+CAGCACATATAGCACGTCG ((((((((((.((((((((+)))))))).))))))))))”, with 55.4 °C; and “CGACGTGCGCGATGTGCTG+CAGCACATCGCGCACGTCG (((((((((((((((((((+)))))))))))))))))))”, with 69.3 °C. Take “CGACGTGCGTCATGTGCTG+CAGCACATCGAGCACGTCG ((((((((...((((((((+))))))))...))))))))”: the Tm came to 52.3 °C. For “CGACGTGCTTTATGTGCTG+CAGCACATAAAGCACGTCG (((((((((((((((((((+)))))))))))))))))))” the value was 61 °C.

Take “CGACGTGCAGGATGTGCTG+CAGCACATCAGGCACGTCG ((((((((..(((((((((+)))))))))..))))))))”: the Tm was 56.6 °C.

For the substance “CGACGTGCAGGATGTGCTG+CAGCACATGGCGCACGTCG ((((((((...((((((((+))))))))...))))))))”, the Tm was found to be 49.9 °C. Then “CGACGTGCCCGATGTGCTG+CAGCACATCTCGCACGTCG ((((((((..(((((((((+)))))))))..))))))))”, with 51.6 °C.

As for “CGACGTGCGTTATGTGCTG+CAGCACATTCTGCACGTCG ((((((((...((((((((+))))))))...))))))))”, the Tm came out at 50 °C. For “CGACGTGCAGTATGTGCTG+CAGCACATCACGCACGTCG ((((((((...((((((((+))))))))...))))))))” the value was 50.9 °C; for “CGACGTGCGCCATGTGCTG+CAGCACATTGCGCACGTCG ((((((((((.((((((((+)))))))).))))))))))”, 59.3 °C. Then “CGACGTGCGCGATGTGCTG+CAGCACATTTCGCACGTCG (((((((((..((((((((+))))))))..)))))))))”, with 53.5 °C; and “CGACGTGCCTTATGTGCTG+CAGCACATTGTGCACGTCG ((((((((...((((((((+))))))))...))))))))”, with 45.7 °C. Then “CGACGTGCATTATGTGCTG+CAGCACATTCCGCACGTCG ((((((((...((((((((+))))))))...))))))))”, with 47.5 °C; and “CGACGTGCTCAATGTGCTG+CAGCACATGGCGCACGTCG ((((((((.(.((((((((+)))))))).).))))))))”, with 51.8 °C. For “CGACGTGCCTCATGTGCTG+CAGCACATTTCGCACGTCG ((((((((...((((((((+))))))))...))))))))”, the Tm is 46.5 °C. Then “CGACGTGCTGGATGTGCTG+CAGCACATACAGCACGTCG ((((((((((.((((((((+)))))))).))))))))))”, with 61.4 °C; and “CGACGTGCATGATGTGCTG+CAGCACATGACGCACGTCG ((((((((.(.((((((((+)))))))).).))))))))”, with 46.2 °C; and “CGACGTGCTCGATGTGCTG+CAGCACATTGCGCACGTCG ((((((((.(.((((((((+)))))))).).))))))))”, with 52.4 °C. Then “CGACGTGCGTGATGTGCTG+CAGCACATCACGCACGTCG (((((((((((((((((((+)))))))))))))))))))”, with 66.2 °C; and “CGACGTGCGGGATGTGCTG+CAGCACATCTAGCACGTCG ((((((((..(((((((((+)))))))))..))))))))”, with 57.8 °C; and “CGACGTGCGTAATGTGCTG+CAGCACATCATGCACGTCG ((((((((.(.((((((((+)))))))).).))))))))”, with 52.3 °C. Then “CGACGTGCAGGATGTGCTG+CAGCACATGGAGCACGTCG ((((((((...((((((((+))))))))...))))))))”, with 50.3 °C; and “CGACGTGCTTCATGTGCTG+CAGCACATCTTGCACGTCG ((((((((...((((((((+))))))))...))))))))”, with 48.3 °C. “CGACGTGCTGTATGTGCTG+CAGCACATAGTGCACGTCG ((((((((..(((((((((+)))))))))..))))))))”: the Tm came out at 48 °C. For “CGACGTGCGCCATGTGCTG+CAGCACATTTGGCACGTCG ((((((((...((((((((+))))))))...))))))))” the value was 47.4 °C; for “CGACGTGCCACATGTGCTG+CAGCACATAAGGCACGTCG (((((((((..((((((((+))))))))..)))))))))”, 54 °C. “CGACGTGCATCATGTGCTG+CAGCACATGTGGCACGTCG ((((((((..(((((((((+)))))))))..))))))))”: the melting temperature (Tm) is 55 °C. As to “CGACGTGCCTGATGTGCTG+CAGCACATGAGGCACGTCG ((((((((((.((((((((+)))))))).))))))))))”, the Tm was determined as 58.5 °C. For the substance “CGACGTGCATCATGTGCTG+CAGCACATACCGCACGTCG ((((((((...((((((((+))))))))...))))))))”, the Tm amounted to 46.6 °C. Take “CGACGTGCTTGATGTGCTG+CAGCACATAAAGCACGTCG ((((((((((.((((((((+)))))))).))))))))))”: the midpoint of thermal melting (Tm) was found to be 57.7 °C.

As for “CGACGTGCGGTATGTGCTG+CAGCACATTCCGCACGTCG ((((((((((.((((((((+)))))))).))))))))))”, the Tm is 60 °C. “CGACGTGCGCCATGTGCTG+CAGCACATGGAGCACGTCG ((((((((.((((((((((+)))))))))).))))))))”: the Tm was determined as 62.3 °C. For “CGACGTGCATGATGTGCTG+CAGCACATTGTGCACGTCG (((((((((..((((((((+))))))))..)))))))))” the value was 53.2 °C; for “CGACGTGCTAGATGTGCTG+CAGCACATGTTGCACGTCG ((((((((.(.((((((((+)))))))).).))))))))”, 52.2 °C; for “CGACGTGCTGAATGTGCTG+CAGCACATCGGGCACGTCG ((((((((...((((((((+))))))))...))))))))”, 50.9 °C. Then “CGACGTGCAGCATGTGCTG+CAGCACATGGAGCACGTCG ((((((((..(((((((((+)))))))))..))))))))”, with 54.1 °C; and “CGACGTGCGCCATGTGCTG+CAGCACATTCCGCACGTCG (((((((((..((((((((+))))))))..)))))))))”, with 50.9 °C; and “CGACGTGCCTAATGTGCTG+CAGCACATAACGCACGTCG ((((((((.(.((((((((+)))))))).).))))))))”, with 48.2 °C. For “CGACGTGCCCGATGTGCTG+CAGCACATCGGGCACGTCG (((((((((((((((((((+)))))))))))))))))))” the value was 68.2 °C; for “CGACGTGCAGAATGTGCTG+CAGCACATAATGCACGTCG (((((((((..((((((((+))))))))..)))))))))”, 54.2 °C. “CGACGTGCGCCATGTGCTG+CAGCACATTACGCACGTCG (((((((((..((((((((+))))))))..)))))))))”: the Tm was determined as 52.3 °C. Then “CGACGTGCGAGATGTGCTG+CAGCACATATAGCACGTCG ((((((((.(.((((((((+)))))))).).))))))))”, with 54.6 °C; and “CGACGTGCGTCATGTGCTG+CAGCACATTACGCACGTCG ((((((((((.((((((((+)))))))).))))))))))”, with 57.4 °C. In the case of “CGACGTGCGGAATGTGCTG+CAGCACATCCTGCACGTCG ((((((((.(.((((((((+)))))))).).))))))))”, the Tm came out at 55.2 °C.

Consider “CGACGTGCCCAATGTGCTG+CAGCACATCTGGCACGTCG (((((((((..((((((((+))))))))..)))))))))”, for which the Tm is 53.8 °C. Then “CGACGTGCGTGATGTGCTG+CAGCACATTGAGCACGTCG ((((((((...((((((((+))))))))...))))))))”, with 54.7 °C; and “CGACGTGCTCTATGTGCTG+CAGCACATTAAGCACGTCG (((((((((..((((((((+))))))))..)))))))))”, with 51.1 °C; and “CGACGTGCCCTATGTGCTG+CAGCACATCAGGCACGTCG (((((((((..((((((((+))))))))..)))))))))”, with 53.8 °C. For “CGACGTGCATAATGTGCTG+CAGCACATCTTGCACGTCG (((((((((..((((((((+))))))))..)))))))))” the value was 50.8 °C; for “CGACGTGCCTCATGTGCTG+CAGCACATTCTGCACGTCG ((((((((...((((((((+))))))))...))))))))”, 47.1 °C; for “CGACGTGCCAAATGTGCTG+CAGCACATAATGCACGTCG ((((((((...((((((((+))))))))...))))))))”, 48.2 °C. For “CGACGTGCCGCATGTGCTG+CAGCACATAGCGCACGTCG ((((((((...((((((((+))))))))...))))))))” the value was 53.9 °C.
